Data: US8440629B2, “Cyclic receptor-associated protein (RAP) peptides” (Raptor Pharmaceuticals Inc., priority 2007, dated 2013)

B1: VRAP1 d3: RAP d3 variant selected on VLDLR CR6-8: R205S, E251R, K256L, K270E, R296L, G313D (protein)
chain: LDRLSRVSHQGYSTEAEFEEPRVIDLWDLAQSANLTDKELEAFREELKHFRAKIELHNHYQKQLEIAHEELRHAESVGDGERVSRSREKHALLEGLTKELGYTVKKHLQDLSDRISRAR
B2: mRAPc: minimized RAP d3, E241C, A242G, R314G, I315C, disulfide-cyclized, N-terminal biotin-GGSGG (SEQ ID NO: 99) (peptide)
chain: CGFREELKHFEAKIEKHNHYQKQLEIAHEKLRHAESVGDGERVSRSREKHALLEGRTKELGYTVKKHLQDLSGGC
modifications: disulfide cyclization; N-terminal biotin-GGSGG

Tests used:
[1] = target: T1, VLDLR CR6-8 (Homo sapiens, UniProt P98155); test: Solid phase binding assay; settings: 80 nM ligand, FIG. 7
T1 construct: made in house; host or cells: E. coli BL21(DE3) CodonPlus-RIPL, pET30(+)a
Procedure: (§1) All expression constructs were sequenced to verify insert sequences and the junctions with the expression vector. Each plasmid was then used to transform BL21(DE3) CodonPlus-RIPL™ cells (Stratagene). Expression of the CR proteins was induced in logarithmic growth-phase cells grown in LB supplemented with 34 μg/mL chloramphenicol, 12.5 μg/mL tetracycline and 15 μg/mL kanamycin by addition of 2 mM IPTG, followed by reduction in incubator temperature to 32° C. and incubation for 4 hours with agitation at […]. Cells were pelleted and resuspended, at 3.5% of the initial culture volume in 10 mM Tris-HCl pH 8, 100 mM NaH2PO4, 8M Urea. Resuspended cells were then frozen in liquid nitrogen, rapidly thawed to 37° C. and sonicated for 10 seconds at an amplitude setting of 60 using a Cole-Parmer CP-130 ultrasonic processor connected to a 3 mm probe. This procedure was repeated three times to effect complete lysis of the cells. Lysates were clarified by spinning twice at 10,000×g in a Sorvall RC-5 centrifuge for 20 minutes at 15° C. Ni-NTA columns (Qiagen Superflow™, 1.5 mL packed bed) were used to purify the CR proteins. Briefly, the resin was equilibrated with two column volumes of lysis buffer. The clarified lysate was then supplemented to 20 mM with imidazole and incubated with the equilibrated Ni-NTA resin overnight at 4° C. The flow-through was discarded. Columns were washed once with one column volume of lysis buffer and then three times with one column volume of TBS pH 8 supplemented with 20 mM imidazole. CR-loaded beads were then removed from the column and CR proteins eluted by incubating at room temperature for 30 minutes with one column volume of the same buffer containing 200 mM imidazole. This step was repeated once and the eluates pooled. Eluted CR protein solutions were then supplemented to 2 M urea, 10 mM CaCl2 and 5 mM DTT. Purified, denatured CR protein solutions were transferred to 3,500 MWCO Slide-A-Lyzer™ (Pierce) cassettes and sequentially dialyzed against a 200-fold excess of 50 mM Tris-HCl pH 8.5, 10 mM CaCl2, 1 mM reduced glutathione, 0.5 mM oxidized glutathione at room temperature overnight and then against TBS supplemented with 5 mM CaCl2 at 4° C. overnight. Protein concentrations were determined by Bradford assay and purity confirmed by SDS-PAGE with Coomassie Brilliant Blue staining.
(§2) Purified, refolded CR protein (1 μg) was bound to Nunc Maxisorp™ 96-well plates in TBS pH 8 supplemented with 5 mM CaCl2 (TBSC) overnight at 4° C. Wells were washed with TBSC and then blocked with TBSC containing 2% bovine serum albumin (BSA). RAP ligands were then incubated with the immobilized receptor at a range of concentrations for 2 hours in the above blocking buffer supplemented with 0.05% Tween-20 at room temperature. Control wells contained no added ligand. As an additional control, to determine whether the absence of calcium affected binding, 10 mM EGTA was included in the incubation medium for some samples. Wells were washed with TBSTC and bound ligands detected with polyclonal anti-RAP (BP41/42, 1:1,000, BioMarin). Excess primary antibody was removed and wells washed before incubation with the secondary antibody, HRP-conjugated goat anti rabbit IgG (Bio-Rad). After washing, TMB substrate solutions (Bio-Rad) were added to detect HRP. Color development was stopped with 1N HCl. Absorption at 450 nm was measured with a microplate spectrophotometer (Molecular Devices). Data were plotted and Kd values derived by non-linear regression with the assumption of single-site binding (GraphPad Prism).
(§3) From the large number of CR pairs with unique combinations of amino acids at A, C, A′ and C′ within the calcium-binding loop of each CR, CR pairs or triplets were selected to test their binding to RAP d3 (FIG. 2). An additional pair derived from the FDC-8D6 protein was tested, designated 8D6 CR12, having the sequence ([…]) (SEQ ID NO: 91). […]

[2] = target: T2, VLDLR CR78 (Homo sapiens, UniProt P98155); test: Solid phase binding assay
T2 construct: a CR pair from VLDLR (CR78); made in house; host or cells: E. coli BL21(DE3) CodonPlus-RIPL, pET30(+)a
Procedure: as §1, §2, §3

[3] = system: LRP-deficient CHO-K1 cells; test: Endocytosis-dependent toxicity assay (MTT); type: cell-based, Chinese hamster; settings: 100 nM, 48 hours
Procedure: (§4) In order to determine the ability of the cyclic RAP peptides to bind receptor on the surface of a cell, binding was assessed in the presence of cultured cell lines. To determine whether cyclic RAP peptides could be bound and endocytosed by full-length LRP1 expressed on cells in culture, an endocytosis-dependent toxicity assay was used. Two cell-lines were used, Chinese hamster ovary CHO-K1 cells expressing only one high-affinity RAP-receptor, LRP1, and a mutant CHO-K1 lacking LRP1 expression was used as control. Cells were cultured in BioWhittaker UltraCHO medium (Lonza, Basel, Switzerland) supplemented with 2.5% fetal bovine serum. Cells were seeded in 12-well tissue culture plates. The biotinylated mRAPc was combined with equimolar amounts of a conjugate between streptavidin and the bacterial toxin saporin (ZAP, Advanced Targeting Systems, San Diego, Calif.). The mixture was diluted in MEM without phenol red (Mediatech, Manassas, Va.) supplemented with 10% FBS to 100 nM. Conjugated mRAPc (100 nM) and control agents (mRAPc alone, 100 nM, streptavidin-saporin alone, 100 nM, saporin alone, 1 mM) were cultured with confluent cells and cell death was assayed 48 hours later via MTT assay (Invitrogen, San Diego, Calif.).

[4] = system: wild-type CHO-K1 cells expressing LRP1; test: Endocytosis-dependent toxicity assay (MTT); type: cell-based, Chinese hamster; settings: 100 nM, 48 hours
Procedure: as §4

Molecule | binding at 80 nM (in words) [1] | binding at 80 nM (in words) ([2]; 80 nM ligand, FIG. 7) | Kd ([2]; solid-phase assay, VLDLR CR78, read-out: apparent dissociation constant (Kd)) [nM] | effect on cell survival (in words) [3] | effect on cell survival (in words) [4]
B1 | bound | bound | 44 ± 9 | – | –
B2 | – | – | – | no effect | no effect
